Test results from article PMC11649247.

Molecular target: Mycobacterium tuberculosis polyketide synthase 13 (Mt-Pks13) (Mycobacterium tuberculosis) (UniProt I6X8D2)
Test: AUC; sedimentation velocity at pH 6 (of a series from pH 6 to 8); triple buffer (20 mM each sodium acetate, Tris/HCl, CHES), 150 mM NaCl, 2.5 mM βME; 30 000 r.p.m.; 4 °C or 20 °C; dimer to monomers

**Q.** Which stoichiometry N does the source give for “Mycobacterium tuberculosis polyketide synthase 13 (Mt-Pks13) (from UniProt I6X8D2 1-1733) (enzyme)” here?
**A.** Its stoichiometry N is 2.
